Test results: patent US20230110702A1 (IMMUNEONCO BIOPHARMACEUTICALS SHANGHAI, published 2023)

B1: IMM5601 (bispecific antibody, human IgG1, kappa)
heavy: not shown
light: DIVMTQSHLSMSTSLGDPVSITCKASQDVSTVVAWYQQKPGQSPRRLIYSASYRYIGVPDRFTGSGAGTDFTFTISSVQAEDLAVYYCQQHYSPPYTFGGGTKLEIKRTVAAPSVFIFPPSDEQLKSGTASVVCLLNNFYPREAKVQWKVDNALQSGNSQESVTEQDSKDSTYSLSSTLTLSKADYEKHKVYACEVTHQGLSSPVTKSFNRGEC
notes: also called recombinant fusion protein; SIRPαD1-linker-anti-CD38 heavy chain + anti-CD38 light chain
B2: IMM5602 (bispecific antibody, human IgG1, kappa)
heavy: QVQLVQSGAEVAKPGTSVKLSCKASGYTFTDYWMQWVKQRPGQGLEWIGTIYPGDGDTGYAQKFQGKATLTADKSSKTVYMHLSSLASEDSAVYYCARGDYYGSNSLDYWGQGTSVTVSSASTKGPSVFPLAPSSKSTSGGTAALGCLVKDYFPEPVTVSWNSGALTSGVHTFPAVLQSSGLYSLSSVVTVPSSSLGTQTYICNVNHKPSNTKVDKRVEPKSCDKTHTCPPCPAPELLGGPSVFLFPPKPKDTLMISRTPEVTCVVVDVSHEDPEVKFNWYVDGVEVHNAKTKPREEQYNATYRVVSVLTVLHQDWLNGKEYKCKVSNKALPAPIAATISKAKGQPREPQVYTLPPSREEMTKNQVSLTCLVKGFYPSDIAVEWESNGQPENNYKTTPPVLDSDGSFFLYSKLTVDKSRWQQGNVFSCSVMHEALHNHYTQKSLSLSPGK
light: not shown
notes: also called recombinant fusion protein; anti-CD38 heavy chain + SIRPαD1-linker-anti-CD38 light chain

What was measured:
CD47 [1] = biological target: T1, CD47 (UniProt Q08722 19-323, limits assumed); assay: flow cytometry on CD38^-CD47^+ Jurkat cells, FITC anti-human IgG-Fc
T1 construct: whole, on cells; also called CD47 on CD38^-CD47^+ Jurkat cells; CD47 on CD38^+CD47^+ NCI-H929 cells
Procedure: Cells were washed with cold 1% BSA-PBS twice, and then incubated with FITC-conjugated secondary antibody against human IgG-Fc (Cat #F9512, Sigma) for 45 min. Cells were washed twice and re-suspended in 200 μl PBS. Then, the cells were subject to FACS analysis using a flow cytometer (Merck Millipore, Guava® easyCyte 5HT).

CD47 [2] = biological target: T1, CD47; assay: FACS competition against SIRPα-mFc (3 µg/ml) on CD47^+CD38^+ NCI-H929 cells, PE anti-mouse IgG-Fc
Procedure: The resultant mixtures were added to the wells of a 96-well plate each containing 50 μl 1×10⁶/ml CD47⁺CD38⁺ NCI-H929 cells, and the plate was incubated at 4° C. for 45 min. […] Cells were washed twice, re-suspended in 200 μl PBS, and subject to FACS analysis.

Row | Binder | EC50 (CD47 [1]) [nM] | IC50 (CD47 [2]) [nM]
1 | B1 | 14.1 | 30.7
2 | B2 | 21.9 | –
